Residue numbers refer to the chain shown, from its start. Read-outs that look alike come from different tables or passages of the source.
Experiments:
[1] = biological target: T1, B7-H4 IgV-huIgG1 (human); assay: SPR, antibody captured by anti-human Fab, antigen in flow
T1 construct: also called N-terminal domain of human B7-H4
Protocol: (§1) Briefly, anti-human Fab antibody was immobilized on a carboxyl-derivatized SPR chip surface, and anti-B7-H4 antibodies were captured on the resulting surface at 5 ug/ml for 30 seconds.

[2] = biological target: T2, human B7-H4 on the cell surface (human, UniProt Q7Z7D3 25-282); assay: cell-based or functional assay
T2 sequence: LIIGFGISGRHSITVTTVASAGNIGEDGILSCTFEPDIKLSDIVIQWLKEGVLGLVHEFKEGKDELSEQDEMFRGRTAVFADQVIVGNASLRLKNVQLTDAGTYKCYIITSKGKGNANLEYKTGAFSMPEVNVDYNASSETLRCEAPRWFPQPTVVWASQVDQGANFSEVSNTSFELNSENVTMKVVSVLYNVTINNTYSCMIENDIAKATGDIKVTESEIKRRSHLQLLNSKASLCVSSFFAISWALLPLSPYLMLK

[3] = biological target: T3, mouse B7-H4 on the cell surface (mouse, UniProt Q7TSP5 25-257); assay: flow cytometry, transfected 293 cells
T3 construct: full-length, on transfected HEK293T cells
T3 sequence: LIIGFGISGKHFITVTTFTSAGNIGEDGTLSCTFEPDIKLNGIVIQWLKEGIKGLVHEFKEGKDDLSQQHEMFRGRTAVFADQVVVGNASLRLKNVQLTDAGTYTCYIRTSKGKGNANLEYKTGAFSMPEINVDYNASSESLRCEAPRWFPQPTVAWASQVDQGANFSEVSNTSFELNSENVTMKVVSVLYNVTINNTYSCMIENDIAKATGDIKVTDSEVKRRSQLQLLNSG
Protocol: (§2) Following incubation, cells were pelleted, washed and incubated with a secondary labeling antibody and samples were acquired on a flow cytometer. Data was analyzed using the FlowJo software and MFI was plotted vs. antibody concentration. The EC50 cell binding potency was calculated using nonlinear regression curve fit (GraphPad Prism).

[4] = biological target: T4, cynomolgus monkey B7-H4 on the cell surface (cynomolgus monkey, UniProt Q7Z7D3 25-282 (human entry)); assay: flow cytometry, transfected 293 cells
T4 construct: full-length, on transfected HEK293T cells
T4 chain: T2 sequence with L53I, F242L, S252A
Protocol: as §2

[5] = biological target: T5, rat B7-H4 on the cell surface (rat, UniProt Q501W4 25-257); assay: flow cytometry, transfected 293 cells
T5 construct: full-length, on transfected HEK293T cells
T5 sequence: T3 sequence with R109H, Q228E
Protocol: as §2

[6] = biological target: T6, recombinant human B7-H4-huIgG1 (human); assay: BLI, antigen on Protein A tips;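 further: Anti-B7-H4 antibodies assessed for affinity toward the B7-H4 extracellular domain using biolayer interferometry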
T6 construct: also called B7-H4-extracellular domain (ECD)
Protocol: (§3) Binding affinities of anti-B7-H4 antibodies to B7-H4-extracellular domain (ECD) were determined by biolayer interferometry (BLI). […] Anti-B7-H4 antibodies were then evaluated for binding.

[7] = biological target: T7, mouse B7-H4 (recombinant, BLI) (mouse, UniProt Q7TSP5 29-256, limits assumed); assay: BLI, antigen on Protein A tips;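 further: Anti-B7-H4 antibodies assessed for affinity toward the B7-H4 extracellular domain using biolayer interferometry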
T7 construct: also called murine B7-H4
T7 sequence: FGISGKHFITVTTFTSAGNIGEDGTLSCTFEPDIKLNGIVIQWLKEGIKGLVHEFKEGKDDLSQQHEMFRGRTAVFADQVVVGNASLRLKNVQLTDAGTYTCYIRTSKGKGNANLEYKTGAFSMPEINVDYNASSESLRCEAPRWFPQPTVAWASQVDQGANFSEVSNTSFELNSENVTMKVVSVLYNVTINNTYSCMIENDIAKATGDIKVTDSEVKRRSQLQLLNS
Protocol: as §3

[8] = biological target: T8, cynomolgus monkey B7-H4 (recombinant, BLI) (cynomolgus monkey, UniProt Q7Z7D3 25-259 (human entry)); assay: BLI, antigen on Protein A tips;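 further: Anti-B7-H4 antibodies assessed for affinity toward the B7-H4 extracellular domain using biolayer interferometry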
T8 construct: also called Cynomolgus B7-H4
T8 sequence: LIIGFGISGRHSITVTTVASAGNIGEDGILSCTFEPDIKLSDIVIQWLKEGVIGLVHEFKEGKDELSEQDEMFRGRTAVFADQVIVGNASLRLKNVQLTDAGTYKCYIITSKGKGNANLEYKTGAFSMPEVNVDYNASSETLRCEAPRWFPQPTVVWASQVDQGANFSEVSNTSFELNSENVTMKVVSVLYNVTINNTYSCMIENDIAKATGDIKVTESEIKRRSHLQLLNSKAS
Protocol: as §3

[9] = biological target: T2, human B7-H4 on the cell surface; assay: flow cytometry, SK-BR-3 cells
Protocol: as §2

[10] = biological target: T2, human B7-H4 on the cell surface; assay: flow cytometry, 100 nM, transfected HEK293T
Protocol: (§4) HEK293T cell lines were transfected to express full-length human, cynomolgus monkey, mouse, or rat B7-H4. In addition, the endogenous human B7-H4 expressing SK-BR-3 breast cancer cell line was used to assess the ability of the antibodies to bind B7-H4 expressed on the cell surface. 1×10⁵ parental HEK293T or transfected HEK293T cell lines were incubated with 100 nM of the B7-H4 antibodies. Following incubation, cells were pelleted, washed, and incubated with a secondary labeling antibody, and samples were acquired on a flow cytometer. Fold binding over the parental cell line (FOP) was calculated as follows: MFI transfected HKE293T cells/MFI parental HEK293T cells.

[11] = biological target: T3, mouse B7-H4 on the cell surface; assay: flow cytometry, 100 nM, transfected HEK293T
Protocol: as §4

[12] = biological target: T4, cynomolgus monkey B7-H4 on the cell …; assay: flow cytometry, 100 nM, transfected HEK293T
Protocol: as §4

[13] = biological target: T1, B7-H4 IgV-huIgG1; assay: SPR, protocol of Example 4
Protocol: as §1

[14] = biological target: T2, human B7-H4 on the cell surface; assay: flow cytometry, SK-BR-3 cells; remark: listed apart in the source
Protocol: (§5) The fucosylated and afucosylated anti B7-H4 antibodies were also characterized by flow cytometry. In these experiments, HEK293T cell lines were transfected to express full-length cynomolgus monkey, mouse, or rat B7-H4. In addition, the endogenous human B7-H4 expressing SK-BR-3 breast cancer cell lines were used to assess the cell binding potency of B7-H4 antibodies. […] Following incubation, cells were pelleted, washed, incubated with a secondary labeling antibody, and run on a flow cytometer. Data were analyzed using the FlowJo software. MFI was plotted vs. antibody concentration, and the EC50 cell binding potency was calculated using nonlinear regression curve fit (GraphPad Prism).

[15] = biological target: T3, mouse B7-H4 on the cell surface; assay: flow cytometry, transfected 293 cells; remark: listed apart in the source
Protocol: as §5

[16] = biological target: T4, cynomolgus monkey B7-H4 on the cell …; assay: flow cytometry, transfected 293 cells
Protocol: as §5

[17] = biological target: T2, human B7-H4 on the cell surface; assay: cell-based or functional assay; remark: listed apart in the source
[18] = biological target: T2, human B7-H4 on the cell surface; assay: cell-based or functional assay; remark: listed apart in the source
[19] = biological target: T5, rat B7-H4 on the cell surface; assay: flow cytometry, transfected 293 cells; remark: listed apart in the source
Protocol: as §5

[20] = biological target: T3, mouse B7-H4 on the cell surface; assay: flow cytometry, transfected HEK293T

B1: B7-H4 antibody 15465 (antibody, human IgG1, kappa, V domains shown)
VH: QVQLQESGPGLVKPSQTLSLTCTVSGGSISSGGYYWSWIRQHPGKGLEWIGNIYYSGSTYYNPSLKSRVTISVDTSKNQFSLKLSSVTAADTAVYYCARESSTISADFDLWGRGTLVTVSS
VL: DIQMTQSPSSVSASVGDRVTITCRASQGISRWLAWYQQKPGKAPKLLIYAASSLQSGVPSRFSGSGSGTDFTLTISSLQPEDFATYYCQQAHTFPYTFGGGTKVEIKR
notes: human IgG1/kappa
B1 gave a Kd [1] of 17.3 nM, a koff [1] of 0.00417 s⁻¹ and a kon [1] of 241000 M⁻¹ s⁻¹. The “Donor 1 Max IFNγ” value [2] was 230 pg/mL, the “Donor 2 Max IFNγ” value [2] was 134 pg/mL and the “Donor 3 Max IFNγ” value [2] was 1520 pg/mL. The “Donor 4 Max IFNγ” value [2] was 865 pg/mL, the “aAPC Assay EC50 (IFNγ production)” value [2] was 4310 nM and the EC50 [3] was 5.34 nM. For the same binder, the EC50 [4] was 4.9 nM, the EC50 [5] was 1.47 nM and the Kd [6] was 51.3 nM. It also gave a koff [6] of 0.0248 s⁻¹, a kon [6] of 484000 M⁻¹ s⁻¹ and a Kd [7] of 89.6 nM. The koff [7] was 0.0265 s⁻¹, the kon [7] was 296000 M⁻¹ s⁻¹ and the Kd [8] was 51.1 nM. For the same binder, the koff [8] was 0.0278 s⁻¹, the kon [8] was 544000 M⁻¹ s⁻¹ and the EC50 [9] was 2.13 nM. For the same binder, the “FOP (fold binding over the parental cell line)” value [10] was 626 fold, the “FOP (fold binding over the parental cell line)” value [11] was 690 fold and the “FOP (fold binding over the parental cell line)” value [12] was 1320 fold.

B2: B7-H4 antibody 20506, afucosylated (antibody, human IgG1, kappa, V domains shown)
VH: B1 VH with V2L, Q16E, V24A, S31H, I71M
VL: B1 VL
modifications: afucosylated Fc glycan (made in CHO-y cells)
notes: human IgG1/kappa
In the case of B2, the Kd [13] is reported as 2.01 nM, the koff [13] is reported as 0.000725 s⁻¹ and the kon [13] is reported as 360000 M⁻¹ s⁻¹. The EC50 [14] was 0.767 nM, the EC50 [15] was 1.77 nM and the EC50 [16] was 1.77 nM. The “aAPC Assay EC50 (IFNγ production)” value [17] was 1.05 nM and the “ADCC Assay EC50 (SK-BR-3 target cells)” value [18] was 0.0015 nM.

B3: B7-H4 antibody 20506, fucosylated (antibody, human IgG1, kappa, V domains shown)
VH: B1 VH with V2L, Q16E, V24A, S31H, I71M
VL: B1 VL
modifications: normally fucosylated Fc glycan (made in CHO-x cells)
notes: human IgG1/kappa
B3 showed a Kd [13] of 1.93 nM, a koff [13] of 0.000703 s⁻¹ and a kon [13] of 365000 M⁻¹ s⁻¹. The EC50 [14] was 0.739 nM, the EC50 [15] was 1.77 nM and the EC50 [16] was 1.77 nM. For the same binder, the EC50 [19] was 3.25 nM, the “aAPC Assay EC50 (IFNγ production)” value [17] was 0.95 nM and the “ADCC Assay EC50 (SK-BR-3 target cells)” value [18] was 0.0135 nM.

B4: B7-H4 antibody 15441 (antibody, human IgG1, kappa, V domains shown)
VH: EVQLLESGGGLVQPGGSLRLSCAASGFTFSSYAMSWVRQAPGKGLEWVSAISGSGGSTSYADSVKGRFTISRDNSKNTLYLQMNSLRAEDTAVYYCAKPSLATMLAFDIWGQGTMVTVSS
VL: DIQMTQSPSTLSASVGDRVTITCRASQSISSWLAWYQQKPGKAPKLLIYDASSLESGVPSRFSGSGSGTEFTLTISSLQPDDFATYYCQQSKSYPRTFGGGTKVEIKR
notes: human IgG1/kappa
Work on B4 yielded a Kd [6] of 7.15 nM, a koff [6] of 0.00872 s⁻¹ and a kon [6] of 1.22e+06 M⁻¹ s⁻¹. For the same binder, the binding result [7] was “no binding”, the Kd [8] was 54.6 nM and the koff [8] was 0.0727 s⁻¹. The kon [8] was 1.33e+06 M⁻¹ s⁻¹, the binding result [20] was “no binding (tested: FOP 10; 100 nM antibody)” and the EC50 [9] was 34.3 nM. For the same binder, the “FOP (fold binding over the parental cell line)” value [10] was 67 fold.

B5: B7-H4 antibody 15461 (antibody, human IgG1, kappa, V domains shown)
VH: QLQLQESGPGLVKPSETLSLTCTVSGGSISSSSYYWGWIRQPPGKGLEWIGNIYYSGSTYYNPSLKSRVTISVDTSKNQFSLKLSSVTAADTAVYYCAREGSYPNWFDPWGQGTLVTVSS
VL: EIVMTQSPATLSVSPGERATLSCRASQSVSSNLAWYQQKPGQAPRLLIYGASTRATGIPARFSGSGSGTEFTLTISSLQSEDFAVYYCQQYHSFPFTFGGGTKVEIKR
notes: human IgG1/kappa
Binder B5 has a Kd [1] of 30.4 nM, a koff [1] of 0.00519 s⁻¹ and a kon [1] of 171000 M⁻¹ s⁻¹. The “Donor 1 Max IFNγ” value [2] was 312 pg/mL, the “Donor 2 Max IFNγ” value [2] was 165 pg/mL and the “Donor 3 Max IFNγ” value [2] was 1960 pg/mL. For the same binder, the “Donor 4 Max IFNγ” value [2] was 987 pg/mL, the “aAPC Assay EC50 (IFNγ production)” value [2] was 531 nM and the EC50 [3] was 6.37 nM. The EC50 [4] was 6.77 nM, the EC50 [5] was 1.67 nM and the Kd [6] was 62.9 nM. It also gave a koff [6] of 0.024 s⁻¹, a kon [6] of 381000 M⁻¹ s⁻¹ and a Kd [7] of 55.7 nM. It also gave a koff [7] of 0.017 s⁻¹, a kon [7] of 305000 M⁻¹ s⁻¹ and a Kd [8] of 62.1 nM. The koff [8] was 0.027 s⁻¹, the kon [8] was 434000 M⁻¹ s⁻¹ and the EC50 [9] was 5.66 nM. For the same binder, the “FOP (fold binding over the parental cell line)” value [10] was 333 fold, the “FOP (fold binding over the parental cell line)” value [11] was 887 fold and the “FOP (fold binding over the parental cell line)” value [12] was 610 fold.

B6: B7-H4 antibody 15495 (antibody, human IgG1, kappa, V domains shown)
VH: QVQLVQSGAEVKKPGSSVKVSCKASGGTFSSYAISWVRQAPGQGLEWMGGIIPIFGTASYAQKFQGRVTITADESTSTAYMELSSLRSEDTAVYYCARQQYDGRRYFGLWGRGTLVTVSS
VL: B5 VL with G50S, Y91V, H92N, S93V, F94W, F96P
notes: human IgG1/kappa
B6 gave a Kd [6] of 9.44 nM, a koff [6] of 0.0272 s⁻¹ and a kon [6] of 2.89e+06 M⁻¹ s⁻¹. The binding result [7] was “no binding”, the Kd [8] was 5.17 nM and the koff [8] was 0.0168 s⁻¹. The kon [8] was 3.25e+06 M⁻¹ s⁻¹, the binding result [20] was “no binding (tested: FOP 10; 100 nM antibody)” and the EC50 [9] was 61.2 nM. For the same binder, the “FOP (fold binding over the parental cell line)” value [10] was 619 fold and the “FOP (fold binding over the parental cell line)” value [12] was 524 fold.

B7: B7-H4 antibody 15503 (antibody, human IgG1, kappa, V domains shown)
VH: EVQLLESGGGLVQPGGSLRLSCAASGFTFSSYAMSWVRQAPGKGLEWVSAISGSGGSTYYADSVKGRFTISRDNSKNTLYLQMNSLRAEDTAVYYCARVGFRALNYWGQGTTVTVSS
VL: DIQLTQSPSSVSASVGDRVTITCRASQDISSWLAWYQQKPGKAPKLLIYAASSLQSGVPSRFSGSGSGTDFTLTISSLQPEDFATYYCQQATSYPPWTFGGGTKVEIKR
notes: human IgG1/kappa
For B7, the Kd [6] was 10.4 nM, the koff [6] was 0.0205 s⁻¹ and the kon [6] was 1.96e+06 M⁻¹ s⁻¹. The binding result [7] was “no binding”, the Kd [8] was 6.32 nM and the koff [8] was 0.0115 s⁻¹. The kon [8] was 1.82e+06 M⁻¹ s⁻¹, the binding result [20] was “no binding (tested: FOP 10; 100 nM antibody)” and the “FOP (fold binding over the parental cell line)” value [10] was 289 fold. For the same binder, the “FOP (fold binding over the parental cell line)” value [12] was 877 fold.

Source: patent publication US20240043542A1 (published 2024)
